Experimental data: patent US20040086941A1 (Takeda / Millennium, published 2004)
Positions of bridges follow the written chain, without caps; N, C: chain ends. No end group written: not given here.

B1: Des-[Asp1, Phe2, Asp3]-MCH (MCH(4-19)) (peptide)
peptide: MLRCMLGRVYRPCWQV-OH
modifications: disulfide 4-13; N-terminus assumed
SMILES: CSCC[C@@H]1NC(=O)[C@@H](NC(=O)[C@H](CCCNC(=N)N)NC(=O)[C@H](CC(C)C)NC(=O)[C@@H](N)CCSC)CSSC[C@@H](C(=O)N[C@@H](Cc2c[nH]c3ccccc23)C(=O)N[C@@H](CCC(N)=O)C(=O)N[C@H](C(=O)O)C(C)C)NC(=O)[C@@H]2CCCN2C(=O)[C@H](CCCNC(=N)N)NC(=O)[C@H](Cc2ccc(O)cc2)NC(=O)[C@H](C(C)C)NC(=O)[C@H](CCCNC(=N)N)NC(=O)CNC(=O)[C@H](CC(C)C)NC1=O
notes: also called amino terminal-truncated form of MCH; N-terminal truncated form

How the values were obtained:
[1] = biological target: T1, human receptor protein SLT (hSLT) (human, UniProt Q969V1 1-340); experiment: cell-based or functional assay
T1 sequence (Q969V1 whole entry): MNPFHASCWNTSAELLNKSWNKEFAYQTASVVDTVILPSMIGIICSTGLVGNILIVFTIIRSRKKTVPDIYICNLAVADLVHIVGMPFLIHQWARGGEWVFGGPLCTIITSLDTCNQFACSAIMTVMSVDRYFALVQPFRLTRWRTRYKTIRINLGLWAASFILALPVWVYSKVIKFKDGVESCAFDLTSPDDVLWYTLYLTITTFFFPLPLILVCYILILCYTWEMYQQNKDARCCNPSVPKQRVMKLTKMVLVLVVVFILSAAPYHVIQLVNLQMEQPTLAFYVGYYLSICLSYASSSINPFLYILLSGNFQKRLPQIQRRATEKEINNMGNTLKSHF

[2] = biological target: T1, human receptor protein SLT (hSLT); experiment: radioligand competition; [125I]-labeled MCH(4-19) on membrane fraction (30 ug/ml) of human SLT-expressing CHO cells, filtration
Experimental: Receptor binding assay was performed using [¹²⁵I]-labeled MCH (4-19) prepared in REFERENCE EXAMPLE 3 using Bolton-Hunter reagent and the cell membrane fraction prepared from human SLT-expressing CHO cells.
The cell membrane fraction prepared from human SLT-expressing CHO cells according to EXAMPLE 6 was diluted at various concentrations with the assay buffer (50 mM Tris-HCl, 5 mM EGTA (ethyleneglycol-bis(aminoethylether) tetraacetic acid), 5 mM magnesium acetate, 0.05% CHAPS, 0.1% BSA (bovine serum albumin), 0.25 mM PMSF (phenylmethylsulfonyl fluoride), 1 μg/ml pepstatin, 20 μg/ml leupeptin, pH 7.4). A 200 μl aliquot of each dilution was then dispensed in a polypropylene testing tube (Falcon, Inc., 2053). Two μl of DMSO and 2 μl of 20 nM [¹²⁵I]-labeled MCH (4-19) were added to the membrane fraction solution to determine the amount of total binding (TB), and 2 μl of a solution of 100 μM MCH in DMSO and 2 μl of […] [¹²⁵I]-labeled MCH (4-19) were added thereto to determine the amount of non-specific binding (NSB). After reaction at 25° C. for 60 minutes, the reaction solution was filtered with suction through a polyethyleneimine-treated glass filter (Whatman Co., GF-F). Following the filtration, the radioactivity of [¹²⁵I]-labeled MCH (4-19) remaining on the filter paper was measured with a γ-counter.
As a result, the IC₅₀ value was approximately 20 nM (FIG. 4). […]

Binder	release of [3H] arachidonic acid metabolite in human SLT-expressing CHO cells, EC50 [1] [nM]	IC50 [2] [nM]
DFDMLRCMLGRVYRPCWQV (disulfide 7-16) [melanin-concentrating hormone, MCH (synthetic human MCH)]	0.57	~20
B1		3.3
